Assay results: PMC4366684 (The FEBS journal, 2013)

What was measured:
[1] = target: T1, low-specificity Escherichia coli L-threonine aldolase (eTA) (Escherichia coli, UniProt P75823); test: X-ray crystal structure, […] Å, co-crystallised with L-serine; assay type: binding; details: covalent, external aldimine with PLP; partial occupancy
[2] = target: T1, low-specificity Escherichia coli L-threonine aldolase (eTA); test: X-ray crystal structure, […] Å; assay type: binding; details: covalent, internal aldimine with Lys197; 1:1 per subunit
purified protein [3] = substrate: C[C@H](O)[C@H](N)C(=O)O; test: purified protein; assay type: biochemical, Escherichia coli; details: 20 mM potassium phosphate, pH 7.0, 30 °C, retro-aldol cleavage
purified protein [4] = substrate: C[C@@H](O)[C@H](N)C(=O)O; test: purified protein; assay type: biochemical, Escherichia coli; details: 20 mM potassium phosphate, pH 7.0, 30 °C, retro-aldol cleavage

Molecule	X-ray crystal structure, 2.2 Å, co-crystallised with L-serine [1]	X-ray crystal structure, 2.2 Å [2]	Km (purified protein [3]) [µM]	kcat (purified protein [3]) [s⁻¹]	kcat/Km (purified protein [3]) [M⁻¹ s⁻¹]	Km (purified protein [4]) [µM]	kcat (purified protein [4]) [s⁻¹]	kcat/Km (purified protein [4]) [M⁻¹ s⁻¹]
NCC(=O)O [glycine]	external aldimine with glycine (in which the C4’ is bound to the amino group	–	–	–	–	–	–	–
Cc1ncc(COP(=O)(O)O)c(C=O)c1O [PLP]	–	PLP bound at their interface, forming a Schiff base (internal aldimine) with the conserved Lys197	–	–	–	–	–	–
low-specificity Escherichia coli L-threonine aldolase (eTA) (Escherichia coli K-12) (protein) MIDLRSDTVTRPSRAMLEAMMAAPVGDDVYGDDPTVNALQDYAAELSGKEAAIFLPTGTQANLVALLSHCERGEEYIVGQAAHNYLFEAGGAAVLGSIQPQPIDAAADGTLPLDKVAMKIKPDDIHFARTKLLSLENTHNGKVLPREYLKEAWEFTRERNLALHVDGARIFNAVVAYGCELKEITQYCDSFTICLSKGLGTPVGSLLVGNRDYIKRAIRWRKMTGGGMRQSGILAAAGIYALKNNVARLQEDHDNAAWMAEQLREAGADVMRQDTNMLFVRVGEENAAALGEYMKARNVLINASPIVRLVTHLDVSREQLAEVAAHWRAFLAR	–	–	240	3.55	14800	19400	1.87	96.7
low-specificity Escherichia coli L-threonine aldolase (eTA) (Escherichia coli K-12; H126N) (protein) MIDLRSDTVTRPSRAMLEAMMAAPVGDDVYGDDPTVNALQDYAAELSGKEAAIFLPTGTQANLVALLSHCERGEEYIVGQAAHNYLFEAGGAAVLGSIQPQPIDAAADGTLPLDKVAMKIKPDDINFARTKLLSLENTHNGKVLPREYLKEAWEFTRERNLALHVDGARIFNAVVAYGCELKEITQYCDSFTICLSKGLGTPVGSLLVGNRDYIKRAIRWRKMTGGGMRQSGILAAAGIYALKNNVARLQEDHDNAAWMAEQLREAGADVMRQDTNMLFVRVGEENAAALGEYMKARNVLINASPIVRLVTHLDVSREQLAEVAAHWRAFLAR	–	–	960	7.82	8130	–	–	–
low-specificity Escherichia coli L-threonine aldolase (eTA) (Escherichia coli K-12; F87A) (protein) MIDLRSDTVTRPSRAMLEAMMAAPVGDDVYGDDPTVNALQDYAAELSGKEAAIFLPTGTQANLVALLSHCERGEEYIVGQAAHNYLAEAGGAAVLGSIQPQPIDAAADGTLPLDKVAMKIKPDDIHFARTKLLSLENTHNGKVLPREYLKEAWEFTRERNLALHVDGARIFNAVVAYGCELKEITQYCDSFTICLSKGLGTPVGSLLVGNRDYIKRAIRWRKMTGGGMRQSGILAAAGIYALKNNVARLQEDHDNAAWMAEQLREAGADVMRQDTNMLFVRVGEENAAALGEYMKARNVLINASPIVRLVTHLDVSREQLAEVAAHWRAFLAR	–	–	310	2.67	8600	–	–	–
low-specificity Escherichia coli L-threonine aldolase (eTA) (Escherichia coli K-12; K222A) (protein) MIDLRSDTVTRPSRAMLEAMMAAPVGDDVYGDDPTVNALQDYAAELSGKEAAIFLPTGTQANLVALLSHCERGEEYIVGQAAHNYLFEAGGAAVLGSIQPQPIDAAADGTLPLDKVAMKIKPDDIHFARTKLLSLENTHNGKVLPREYLKEAWEFTRERNLALHVDGARIFNAVVAYGCELKEITQYCDSFTICLSKGLGTPVGSLLVGNRDYIKRAIRWRAMTGGGMRQSGILAAAGIYALKNNVARLQEDHDNAAWMAEQLREAGADVMRQDTNMLFVRVGEENAAALGEYMKARNVLINASPIVRLVTHLDVSREQLAEVAAHWRAFLAR	–	–	1200	1.33	1120	–	–	–
low-specificity Escherichia coli L-threonine aldolase (eTA) (Escherichia coli K-12; H126F) (protein) MIDLRSDTVTRPSRAMLEAMMAAPVGDDVYGDDPTVNALQDYAAELSGKEAAIFLPTGTQANLVALLSHCERGEEYIVGQAAHNYLFEAGGAAVLGSIQPQPIDAAADGTLPLDKVAMKIKPDDIFFARTKLLSLENTHNGKVLPREYLKEAWEFTRERNLALHVDGARIFNAVVAYGCELKEITQYCDSFTICLSKGLGTPVGSLLVGNRDYIKRAIRWRKMTGGGMRQSGILAAAGIYALKNNVARLQEDHDNAAWMAEQLREAGADVMRQDTNMLFVRVGEENAAALGEYMKARNVLINASPIVRLVTHLDVSREQLAEVAAHWRAFLAR	–	–	200	9.02	45100	–	–	–
low-specificity Escherichia coli L-threonine aldolase (eTA) (Escherichia coli K-12; F87D) (protein) MIDLRSDTVTRPSRAMLEAMMAAPVGDDVYGDDPTVNALQDYAAELSGKEAAIFLPTGTQANLVALLSHCERGEEYIVGQAAHNYLDEAGGAAVLGSIQPQPIDAAADGTLPLDKVAMKIKPDDIHFARTKLLSLENTHNGKVLPREYLKEAWEFTRERNLALHVDGARIFNAVVAYGCELKEITQYCDSFTICLSKGLGTPVGSLLVGNRDYIKRAIRWRKMTGGGMRQSGILAAAGIYALKNNVARLQEDHDNAAWMAEQLREAGADVMRQDTNMLFVRVGEENAAALGEYMKARNVLINASPIVRLVTHLDVSREQLAEVAAHWRAFLAR	–	–	410	1.95	4750	–	–	–
